Measurements taken from the supplement of paper PMC5998384.

Key:
HeLa Kyoto [1] = assay: solubility in G1/S (NP-40 vs SDS abundance) (log2 ratio); higher = more soluble; conditions: cell cycle stage: G1/S
HeLa Kyoto [2] = assay: melting temperature (median over replicates), in situ; higher = more thermally stable
HeLa Kyoto [3] = assay: solubility change mitosis vs G1/S (difference of NP-40 vs SDS log2 ratios) (log2 ratio difference); higher = more soluble in mitosis
HeLa Kyoto [4] = assay: thermal stability score vs G1/S (z-score of summed log2 fold changes over temperatures); higher = more thermally stable than in G1/S
[5] = cell cycle stage: early G1 (4.5 h after nocodazole release)
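Throughout, for melting temperature (median over replicates), in situ: HeLa Kyoto cells synchronized by double thymidine or nocodazole block, proteins quantified by TMT10plex mass spectrometry, three independent biological replicates.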
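Throughout, for solubility change mitosis vs G1/S (difference of NP-40 vs SDS log2 ratios): synchronized HeLa Kyoto cells (double thymidine block for G1/S, nocodazole release for mitosis), protein amounts in NP-40 versus SDS lysates quantified by mass spectrometry, three biological replicates.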
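Throughout, for solubility in G1/S (NP-40 vs SDS abundance): HeLa Kyoto cells arrested at G1/S by double thymidine block, proteins quantified by TMT10plex mass spectrometry in mild NP-40 versus SDS extracts, three biological replicates.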
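Throughout, for thermal stability score vs G1/S (z-score of summed log2 fold changes over temperatures): synchronized HeLa Kyoto cells, proteins quantified by TMT10plex mass spectrometry, three biological replicates, mitosis taken 0.5 h after nocodazole release, G1/S directly after double thymidine block.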

Row | Sequence | solubility in G1/S (log2) (HeLa Kyoto [1]) | melting temperature (HeLa Kyoto [2]; cell cycle stage: G1/S) [°C] | melting temperature (HeLa Kyoto [2]; cell cycle stage: mitosis) [°C] | solubility change mitosis (log2) (HeLa Kyoto [3]) | thermal stability score (HeLa Kyoto [4]; [5]) | thermal stability score (HeLa Kyoto [4]; cell cycle stage: mitosis)
1 | MPAVSKGDGMRGLAVFISDIRNCKSKEAEIKRINKELANIRSKFKGDKALDGYSKKKYVCKLLFIFLLGHDIDFGHMEAVNLLSSNRYTEKQIGYLFISVLVNSNSELIRLINNAIKNDLASRNPTFMGLALHCIASVGSREMAEAFAGEIPKVLVAGDTMDSVKQSAALCLLRLYRTSPDLVPMGDWTSRVVHLLNDQHLGVVTAATSLITTLAQKNPEEFKTSVSLAVSRLSRIVTSASTDLQDYTYYFVPAPWLSVKLLRLLQCYPPPDPAVRGRLTECLETILNKAQEPPKSKKVQHSNAKNAVLFEAISLIIHHDSEPNLLVRACNQLGQFLQHRETNLRYLALESMCTLASSEFSHEAVKTHIETVINALKTERDVSVRQRAVDLLYAMCDRSNAPQIVAEMLSYLETADYSIREEIVLKVAILAEKYAVDYTWYVDTILNLIRIAGDYVSEEVWYRVIQIVINRDDVQGYAAKTVFEALQAPACHENLVKVGGYILGEFGNLIAGDPRSSPLIQFHLLHSKFHLCSVPTRALLLSTYIKFVNLFPEVKPTIQDVLRSDSQLRNADVELQQRAVEYLRLSTVASTDILATVLEEMPPFPERESSILAKLKKKKGPSTVTDLEDTKRDRSVDVNGGPEPAPASTSAVSTPSPSADLLGLGAAPPAPAGPPPSSGGSGLLVDVFSDSASVVAPLAPGSEDNFARFVCKNNGVLFENQLLQIGLKSEFRQNLGRMFIFYGNKTSTQFLNFTPTLICSDDLQPNLNLQTKPVDPTVEGGAQVQQVVNIECVSDFTEAPVLNIQFRYGGTFQNVSVQLPITLNKFFQPTEMASQDFFQRWKQLSNPQQEVQNIFKAKHPMDTEVTKAKIIGFGSALLEEVDPNPANFVGAGIIHTKTTQIGCLLRLEPNLQAQMYRLTLRTSKEAVSQRLCELLSAQF [AP2A2] | -0.202 | 52.2 | 51.7 | -0.139 | -0.19 | -0.622
2 | MPCGEDWLSHPLGIVQGFFAQNGVNPDWEKKVIEYFKEKLKENNAPKWVPSLNEVPLHYLKPNSFVKFRCMIQDMFDPEFYMGVYETVNQNTKAHVLHFGKYRDVAECGPQQELDLNSPRNTTLERQTFYCVPVPGESTWVKEAYVNANQARVSPSTSYTPSRHKRSYEDDDDMDLQPNKQKDQHAGARQAGSVGGLQWCGEPKRLETEASTGQQLNSLNLSSPFDLNFPLPGEKGPACLVKVYEDWDCFKVNDILELYGILSVDPVLSILNNDERDASALLDPMECTDTAEEQRVHSPPASLVPRIHVILAQKLQHINPLLPACLNKEESKTCKFVSSFMSELSPVRAELLGFLTHALLGDSLAAEYLILHLISTVYTRRDVLPLGKFTVNLSGCPRNSTFTEHLYRIIQHLVPASFRLQMTIENMNHLKFIPHKDYTANRLVSGLLQLPSNTSLVIDETLLEQGQLDTPGVHNVTALSNLITWQKVDYDFSYHQMEFPCNINVFITSEGRSLLPADCQIHLQPQLIPPNMEEYMNSLLSAVLPSVLNKFRIYLTLLRFLEYSISDEITKAVEDDFVEMRKNDPQSITADDLHQLLVVARCLSLSAGQTTLSRERWLRAKQLESLRRTRLQQQKCVNGNEL [MCMBP] | 0.324 | 49.2 | 50.1 | -0.11 | 0.0238 | 2.25
3 | MPDYLGADQRKTKEDEKDDKPIRALDEGDIALLKTYGQSTYSRQIKQVEDDIQQLLKKINELTGIKESDTGLAPPALWDLAADKQTLQSEQPLQVARCTKIINADSEDPKYIINVKQFAKFVVDLSDQVAPTDIEEGMRVGVDRNKYQIHIPLPPKIDPTVTMMQVEEKPDVTYSDVGGCKEQIEKLREVVETPLLHPERFVNLGIEPPKGVLLFGPPGTGKTLCARAVANRTDACFIRVIGSELVQKYVGEGARMVRELFEMARTKKACLIFFDEIDAIGGARFDDGAGGDNEVQRTMLELINQLDGFDPRGNIKVLMATNRPDTLDPALMRPGRLDRKIEFSLPDLEGRTHIFKIHARSMSVERDIRFELLARLCPNSTGAEIRSVCTEAGMFAIRARRKIATEKDFLEAVNKVIKSYAKFSATPRYMTYN [PSMC2] | 0.358 | 53.2 | 52 | -0.143 | 1.24 | 0.521
4 | MPEEMDKPLISLHLVDSDSSLAKVPDEAPKVGILGSGDFARSLATRLVGSGFKVVVGSRNPKRTARLFPSAAQVTFQEEAVSSPEVIFVAVFREHYSSLCSLSDQLAGKILVDVSNPTEQEHLQHRESNAEYLASLFPTCTVVKAFNVISAWTLQAGPRDGNRQVPICGDQPEAKRAVSEMALAMGFMPVDMGSLASAWEVEAMPLRLLPAWKVPTLLALGLFVCFYAYNFVRDVLQPYVQESQNKFFKLPVSVVNTTLPCVAYVLLSLVYLPGVLAAALQLRRGTKYQRFPDWLDHWLQHRKQIGLLSFFCAALHALYSFCLPLRRAHRYDLVNLAVKQVLANKSHLWVEEEVWRMEIYLSLGVLALGTLSLLAVTSLPSIANSLNWREFSFVQSSLGFVALVLSTLHTLTYGWTRAFEESRYKFYLPPTFTLTLLVPCVVILAKALFLLPCISRRLARIRRGWERESTIKFTLPTDHALAEKTSHV [STEAP3] | -0.128 | 53.3 | 52.4 | -0.0119 | -0.269 | -2.25
5 | MPELAVQKVVVHPLVLLSVVDHFNRIGKVGNQKRVVGVLLGSWQKKVLDVSNSFAVPFDEDDKDDSVWFLDHDYLENMYGMFKKVNARERIVGWYHTGPKLHKNDIAINELMKRYCPNSVLVIIDVKPKDLGLPTEAYISVEEVHDDGTPTSKTFEHVTSEIGAEEAEEVGVEHLLRDIKDTTVGTLSQRITNQVHGLKGLNSKLLDIRSYLEKVATGKLPINHQIIYQLQDVFNLLPDVSLQEFVKAFYLKTNDQMVVVYLASLIRSVVALHNLINNKIANRDAEKKEGQEKEESKKDRKEDKEKDKDKEKSDVKKEEKKEKK [PSMD7] | 0.121 | 53.9 | 51.6 | 0.00337 | -0.335 | -1.17
6 | MPFDFRRFDIYRKVPKDLTQPTYTGAIISICCCLFILFLFLSELTGFITTEVVNELYVDDPDKDSGGKIDVSLNISLPNLHCELVGLDIQDEMGRHEVGHIDNSMKIPLNNGAGCRFEGQFSINKVPGNFHVSTHSATAQPQNPDMTHVIHKLSFGDTLQVQNIHGAFNALGGADRLTSNPLASHDYILKIVPTVYEDKSGKQRYSYQYTVANKEYVAYSHTGRIIPAIWFRYDLSPITVKYTERRQPLYRFITTICAIIGGTFTVAGILDSCIFTASEAWKKIQLGKMH [ERGIC1] | 0.18 | 55.2 | 55.6 | -0.178 | -0.418 | -0.585
7 | MPFLELDTNLPANRVPAGLEKRLCAAAASILGKPADRVNVTVRPGLAMALSGSTEPCAQLSISSIGVVGTAEDNRSHSAHFFEFLTKELALGQDRILIRFFPLESWQIGKIGTVMTFL [DDT] | 0.57 | 56.1 | 57.4 | -0.0844 | -2.25 | -2.27
8 | MPFPFGKSHKSPADIVKNLKESMAVLEKQDISDKKAEKATEEVSKNLVAMKEILYGTNEKEPQTEAVAQLAQELYNSGLLSTLVADLQLIDFEGKKDVAQIFNNILRRQIGTRTPTVEYICTQQNILFMLLKGYESPEIALNCGIMLRECIRHEPLAKIILWSEQFYDFFRYVEMSTFDIASDAFATFKDLLTRHKLLSAEFLEQHYDRFFSEYEKLLHSENYVTKRQSLKLLGELLLDRHNFTIMTKYISKPENLKLMMNLLRDKSRNIQFEAFHVFKVFVANPNKTQPILDILLKNQAKLIEFLSKFQNDRTEDEQFNDEKTYLVKQIRDLKRPAQQEA [CAB39] | 0.0309 | 54.3 | 55.4 | -0.178 | 0.362 | 2.14
9 | MPGGLLLGDVAPNFEANTTVGRIRFHDFLGDSWGILFSHPRDFTPVCTTELGRAAKLAPEFAKRNVKLIALSIDSVEDHLAWSKDINAYNCEEPTEKLPFPIIDDRNRELAILLGMLDPAEKDEKGMPVTARVVFVFGPDKKLKLSILYPATTGRNFDEILRVVISLQLTAEKRVATPVDWKDGDSVMVLPTIPEEEAKKLFPKGVFTKELPSGKKYLRYTPQP [PRDX6] | 0.444 | 53.9 | 54.5 | 0.118 | -1.5 | -3.41
10 | MPGHLQEGFGCVVTNRFDQLFDDESDPFEVLKAAENKKKEAGGGGVGGPGAKSAAQAAAQTNSNAAGKQLRKESQKDRKNPLPPSVGVVDKKEETQPPVALKKEGIRRVGRRPDQQLQGEGKIIDRRPERRPPRERRFEKPLEEKGEGGEFSVDRPIIDRPIRGRGGLGRGRGGRGRGMGRGDGFDSRGKREFDRHSGSDRSSFSHYSGLKHEDKRGGSGSHNWGTVKDELTESPKYIQKQISYNYSDLDQSNVTEETPEGEEHHPVADTENKENEVEEVKEEGPKEMTLDEWKAIQNKDRAKVEFNIRKPNEGADGQWKKGFVLHKSKSEEAHAEDSVMDHHFRKPANDITSQLEINFGDLGRPGRGGRGGRGGRGRGGRPNRGSRTDKSSASAPDVDDPEAFPALA [SERBP1] | -0.123 | 58.8 | – | 0.395 | -1.78 | -8.72
11 | MPGMVLFGRRWAIASDDLVFPGFFELVVRVLWWIGILTLYLMHRGKLDCAGGALLSSYLIVLMILLAVVICTVSAIMCVSMRGTICNPGPRKSMSKLLYIRLALFFPEMVWASLGAAWVADGVQCDRTVVNGIIATVVVSWIIIAATVVSIIIVFDPLGGKMAPYSSAGPSHLDSHDSSQLLNGLKTAATSVWETRIKLLCCCIGKDDHTRVAFSSTAELFSTYFSDTDLVPSDIAAGLALLHQQQDNIRNNQEPAQVVCHAPGSSQEADLDAELENCHHYMQFAAAAYGWPLYIYRNPLTGLCRIGGDCCRSRTTDYDLVGGDQLNCHFGSILHTTGLQYRDFIHVSFHDKVYELPFLVALDHRKESVVVAVRGTMSLQDVLTDLSAESEVLDVECEVQDRLAHKGISQAARYVYQRLINDGILSQAFSIAPEYRLVIVGHSLGGGAAALLATMLRAAYPQVRCYAFSPPRGLWSKALQEYSQSFIVSLVLGKDVIPRLSVTNLEDLKRRILRVVAHCNKPKYKILLHGLWYELFGGNPNNLPTELDGGDQEVLTQPLLGEQSLLTRWSPAYSFSSDSPLDSSPKYPPLYPPGRIIHLQEEGASGRFGCCSAAHYSAKWSHEAEFSKILIGPKMLTDHMPDILMRALDSVVSDRAACVSCPAQGVSSVDVA [DAGLB] | -0.195 | 54.6 | 53.1 | -0.129 | -0.332 | -1.16
